Results from US20090130105A1 (Biogen, published 2009).
Values belong to the binder of their own block, whether it stands above or below them.

Assays:
human IGF-1R(1-903)-Fc [1] = target: T1, human IGF-1R(1-903)-Fc (human, UniProt P08069 31-933); test: IGF-1 blocking ELISA at 20 nM IGF-1 His on biotinylated hIGF-1R-Fc
T1 construct: also called hIGF-1R-Fc; SDWT; not shown: human IgG1 Fc, C-terminal tag
Protocol: (§1) The dilutions were added to the plates in duplicate at 100 μL/well and the plates were incubated at RT for 1 hour. The plates were then washed four times with 200 μL/well PBST. An HRP-conjugated anti-Histag antibody (Penta-His HRP Conjugate, QIAGEN, Cat. No. 1014992) was diluted 1:1000 in PBST and added to plates at 100 μL/well, and the plates were incubated at RT for one hour. The plates were then washed four times with 200 μL/well PBST. SureBlue Reserve TMB Microwell Peroxidase Substrate (KPL, Cat. No. 53-00-01) was added to plates at 100 μL/well followed by 1% phosphoric acid at 100 μL/well once the desired reaction was observed. The absorbance of each well was determined at 450 nm, and the results were normalized and plotted against the log of antibody concentration.
(§2) Ligand Blocking Properties.

[2] = target: T2, human IGF-1R(1-902)-His10 (human, UniProt P08069 31-932); test: SPR competition (Biacore 3000): soluble antibody titrated into 40 nM hIGF-1R-His, mixture injected over immobilized M13-C06
T2 construct: Bought from R&D Systems (305-GR-050); also called hIGF-1R-His10; hIGF-1R-His
Protocol: Regeneration was achieved by three 10 μL injections of 0.1 M glycine, pH 2.0. 100% hIGF-1R-His binding to each antibody was determined by the signal above the baseline under mass transport-limiting conditions 60 seconds into the injection.

human IGF-1R(1-903)-Fc [3] = target: T1, human IGF-1R(1-903)-Fc; test: IGF-1 blocking ELISA at 320 nM IGF-1 His on biotinylated hIGF-1R-Fc
Protocol: as §1, §2

[4] = target: T3, human IGF-1R on H322M non-small cell lung cancer cells (human, UniProt P08069 31-1367); test: flow cytometry on H322M cells, anti-human Fc PE secondary (FIG. 55B)
T3 construct: Endogenous receptor of the tumor cell line; also called cell surface IGF-1R
Protocol: Cell lines were routinely cultured no greater than 20 passages. Flow cyotometric analysis of antibody binding to human cancer cells. Cells were lifted with cell dissociation buffer (Gibco catalog #13151-014), counted, washed and adjusted to 5×10⁶ cells/ml. Cells (2.5×10⁵; 50 uL) were added to each well of a 96-well round bottom plate (Costar #3799). Purified antibodies were tested at a starting concentration of 300 nM with serial half-log dilutions in FACS buffer. FACS buffer used throughout the assay was PBS (without Ca++/Mg++) containing 5% FBS. Samples were incubated on ice for 30 minutes, washed 3× with 200 uL FACS buffer and centrifuged at 1200 rpm for 3 minutes at 4° C. C2B8 (rituximab, IgG1) was used as a negative control. […] Samples were incubated for an additional 30 minutes on ice, shielded from light. Cells were washed as described above and resuspended in 100 μl FACS buffer containing propidium iodide (PI) for dead cell exclusion (BD Pharmingen, catalog# 51-66211E or 556463; use at 1:500 final in FACS buffer). Samples were run in triplicate using the FACSArray flow cytometer (Becton Dickinson) with 5000 live events collected per sample. Data analysis was performed using the GraphPad Prism version 5.0 software (GraphPad Software Inc., 11452 El Camino Real #215, San Diego, Calif. 92130). Results. […]

human IGF-1R(1-903)-Fc [5] = target: T1, human IGF-1R(1-903)-Fc; test: IGF-1 blocking ELISA at 1280 nM IGF-1 His on biotinylated hIGF-1R-Fc
Protocol: as §1, §2

sIGF-1R(1-903) = target: T4, sIGF-1R(1-903) (human, UniProt P08069 31-933); test: ITC, 25 °C; footnote a: affinity too high for accurate measurement
T4 construct: also called soluble IGF-1R ectodomain
Protocol: Isothermal Titration Calorimetry (ITC). […] The reagents were co-dialyzed against PBS, pH 7.2. The protein solutions were adjusted to the concentrations listed above by dilution using PBS dialysate. […] The protein solutions were prepared as described above for the MAb binding experiments. All ITC experiments were performed on an ITC₂₀₀ microcalorimeter (MicroCal, LLC) at 25° C. […] IGF-1R bispecific antibodies. A four minute equilibration period was used between all injections with an initial delay of 60 seconds. Numerical integration of the data was performed using the ITC data analysis software supplied by MicroCal (Origin). ΔHA° (T) values were calculated based on the difference between the average heat liberated/absorbed during the binding phase of the injections and the average heat of dilution found once the receptor, IGF-1R, was saturated with MAb or BsAb.

human IGF-1R(1-903)-Fc [6] = target: T1, human IGF-1R(1-903)-Fc; test: IGF-1 blocking ELISA: antibody titrated in 320 nM IGF-1 His on biotinylated hIGF-1R-Fc on streptavidin plates, bound ligand detected with anti-His-HRP
Protocol: as §1, §2

[7] = target: T5, hIGF-1R-Fc mutant SD103 (D461A, V462T) (human, UniProt P08069 31-933); test: SPR, Fab over captured mutant
T5 construct: not shown: human IgG1 Fc, C-terminal tag
Protocol: (§3) Surface plasmon resonance (SPR) experiments were performed on a Biacore 3000 instrument set to 25° C. […] The antibody sensorchip surfaces were prepared by injecting each antibody (diluted 100 μg/mL in 10 mM Acetate, pH 4.0) over EDC/NHS-activated sensorchip surfaces according to the standard protocol of the manufacturer. […] Both hIGF-1R-Fc and mIGF-1R-Fc proteins oligomerize due to the incorporation of two separate homodimeric regions (IGF-1R and IgG1-Fc). […] After, completion of the receptor-Fc loading step, flow rates were elevated to 5 μl/min. […] Dissociation was measured for 7 minutes after the antibody injections were complete. Finally, the flow rate was elevated to 30 μL/min and the chip surfaces were regenerated by 2×10 μL injections of 0.1 M glycine, pH 2.

[8] = target: T6, hIGF-1R-Fc mutant SD104 (H464A) (human, UniProt P08069 31-933); test: SPR, Fab over captured mutant
T6 construct: not shown: human IgG1 Fc, C-terminal tag
Protocol: as §3

[9] = target: T7, hIGF-1R-Fc mutant SD108 (H480E) (human, UniProt P08069 31-933); test: SPR, Fab over captured mutant
T7 construct: not shown: human IgG1 Fc, C-terminal tag
Protocol: as §3

T1 sequence (P08069 31-933): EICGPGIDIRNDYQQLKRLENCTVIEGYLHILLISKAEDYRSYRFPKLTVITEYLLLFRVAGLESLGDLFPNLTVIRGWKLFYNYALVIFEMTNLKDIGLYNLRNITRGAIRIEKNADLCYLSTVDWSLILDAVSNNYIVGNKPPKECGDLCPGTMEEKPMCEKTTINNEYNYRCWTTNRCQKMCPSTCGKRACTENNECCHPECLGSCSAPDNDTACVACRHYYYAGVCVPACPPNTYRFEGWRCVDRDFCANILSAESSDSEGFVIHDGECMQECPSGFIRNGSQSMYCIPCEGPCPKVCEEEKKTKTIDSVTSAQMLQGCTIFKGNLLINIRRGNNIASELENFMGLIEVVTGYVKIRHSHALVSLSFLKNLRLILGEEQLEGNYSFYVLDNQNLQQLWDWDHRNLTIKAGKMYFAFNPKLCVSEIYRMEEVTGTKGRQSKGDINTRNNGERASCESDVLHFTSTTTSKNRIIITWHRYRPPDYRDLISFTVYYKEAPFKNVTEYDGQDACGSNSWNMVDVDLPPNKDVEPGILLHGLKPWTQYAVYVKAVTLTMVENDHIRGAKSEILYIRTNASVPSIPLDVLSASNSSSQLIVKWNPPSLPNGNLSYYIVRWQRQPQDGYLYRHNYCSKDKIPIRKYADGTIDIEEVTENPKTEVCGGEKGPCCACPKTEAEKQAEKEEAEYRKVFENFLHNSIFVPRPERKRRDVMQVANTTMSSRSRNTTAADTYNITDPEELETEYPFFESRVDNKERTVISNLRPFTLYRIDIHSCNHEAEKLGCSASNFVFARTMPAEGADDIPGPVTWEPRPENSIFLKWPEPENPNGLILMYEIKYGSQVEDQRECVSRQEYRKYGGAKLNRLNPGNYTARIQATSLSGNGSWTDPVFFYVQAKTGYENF
T4 sequence (P08069 31-933): as above
T2 sequence (P08069 other isoform, or with tags, fused parts or gaps): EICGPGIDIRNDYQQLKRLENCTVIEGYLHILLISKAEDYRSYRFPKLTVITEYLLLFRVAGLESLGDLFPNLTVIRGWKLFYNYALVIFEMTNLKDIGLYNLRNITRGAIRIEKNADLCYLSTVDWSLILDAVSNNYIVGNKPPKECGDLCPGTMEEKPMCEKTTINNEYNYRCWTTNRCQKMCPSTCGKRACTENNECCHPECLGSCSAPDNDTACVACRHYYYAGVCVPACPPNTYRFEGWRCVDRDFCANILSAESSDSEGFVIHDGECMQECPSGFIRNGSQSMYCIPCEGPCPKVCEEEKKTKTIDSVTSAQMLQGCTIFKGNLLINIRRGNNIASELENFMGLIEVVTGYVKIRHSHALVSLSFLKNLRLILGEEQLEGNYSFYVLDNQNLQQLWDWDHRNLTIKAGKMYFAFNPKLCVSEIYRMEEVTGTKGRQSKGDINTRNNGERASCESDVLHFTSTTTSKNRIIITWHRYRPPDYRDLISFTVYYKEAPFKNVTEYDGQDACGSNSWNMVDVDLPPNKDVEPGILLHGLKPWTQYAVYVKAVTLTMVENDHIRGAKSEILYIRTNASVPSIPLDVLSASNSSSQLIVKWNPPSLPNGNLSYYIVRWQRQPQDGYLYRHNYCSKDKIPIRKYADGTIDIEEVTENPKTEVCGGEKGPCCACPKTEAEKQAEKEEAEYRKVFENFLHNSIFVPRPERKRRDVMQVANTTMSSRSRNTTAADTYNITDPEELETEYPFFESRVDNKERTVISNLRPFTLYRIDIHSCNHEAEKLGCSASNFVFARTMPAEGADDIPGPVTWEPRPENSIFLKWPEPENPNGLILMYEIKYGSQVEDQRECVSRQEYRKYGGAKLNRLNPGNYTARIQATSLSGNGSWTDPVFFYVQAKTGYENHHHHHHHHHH
T3 sequence (P08069 31-1367, stated change not applied): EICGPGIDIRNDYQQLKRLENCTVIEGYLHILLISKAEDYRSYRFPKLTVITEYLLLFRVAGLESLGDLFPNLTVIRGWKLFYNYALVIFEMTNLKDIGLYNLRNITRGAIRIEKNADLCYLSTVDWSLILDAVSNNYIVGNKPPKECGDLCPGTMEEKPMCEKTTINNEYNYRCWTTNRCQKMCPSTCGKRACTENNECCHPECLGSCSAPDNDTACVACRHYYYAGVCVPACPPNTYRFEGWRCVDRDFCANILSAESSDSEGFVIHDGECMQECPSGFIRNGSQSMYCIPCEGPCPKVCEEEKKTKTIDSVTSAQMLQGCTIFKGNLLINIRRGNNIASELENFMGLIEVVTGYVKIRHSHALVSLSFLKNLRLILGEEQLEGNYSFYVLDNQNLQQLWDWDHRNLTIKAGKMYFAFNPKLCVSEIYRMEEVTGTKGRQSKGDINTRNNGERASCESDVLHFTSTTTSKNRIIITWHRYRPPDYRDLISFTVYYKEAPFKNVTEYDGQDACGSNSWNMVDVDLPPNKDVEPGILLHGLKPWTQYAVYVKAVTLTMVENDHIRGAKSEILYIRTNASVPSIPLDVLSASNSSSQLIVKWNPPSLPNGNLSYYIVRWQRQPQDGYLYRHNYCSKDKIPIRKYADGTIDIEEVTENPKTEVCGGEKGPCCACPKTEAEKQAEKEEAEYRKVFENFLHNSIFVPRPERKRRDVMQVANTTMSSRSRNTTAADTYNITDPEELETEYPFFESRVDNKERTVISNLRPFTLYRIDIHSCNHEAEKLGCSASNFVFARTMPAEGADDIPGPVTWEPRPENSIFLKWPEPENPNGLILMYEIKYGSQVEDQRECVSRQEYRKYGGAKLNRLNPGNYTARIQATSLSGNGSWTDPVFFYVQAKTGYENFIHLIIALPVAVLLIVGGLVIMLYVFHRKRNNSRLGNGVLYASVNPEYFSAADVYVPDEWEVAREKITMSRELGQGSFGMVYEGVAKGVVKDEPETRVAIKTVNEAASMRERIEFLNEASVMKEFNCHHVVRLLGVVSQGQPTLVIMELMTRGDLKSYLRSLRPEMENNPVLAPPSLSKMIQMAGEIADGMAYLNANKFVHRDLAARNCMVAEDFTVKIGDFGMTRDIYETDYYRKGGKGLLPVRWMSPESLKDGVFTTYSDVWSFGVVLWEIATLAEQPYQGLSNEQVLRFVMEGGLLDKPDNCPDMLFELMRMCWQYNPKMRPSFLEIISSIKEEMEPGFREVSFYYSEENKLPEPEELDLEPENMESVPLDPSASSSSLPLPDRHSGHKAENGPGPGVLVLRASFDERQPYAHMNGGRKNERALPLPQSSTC
T6 sequence (P08069 31-933 H494A): as the sequence (P08069 31-933) above, with H464A counted along it
T7 sequence (P08069 31-933 H510E): as the sequence (P08069 31-933) above, with H480E counted along it
T5 sequence (P08069 31-933 D491A/V492T): as the sequence (P08069 31-933) above, with D461A, V462T counted along it

- IC50 (read off the curve) (human IGF-1R(1-903)-Fc [1]): ~1 nM
- IC50 (read off the curve) [2]: ~30 nM
- IC50 (read off the curve) (human IGF-1R(1-903)-Fc [3]): ~1 nM
- EC50 [4]: 0.25 nM
- IC50 (read off the curve) (human IGF-1R(1-903)-Fc [5]): ~1 nM
- -TΔS (sIGF-1R(1-903)): 10.6 kcal/mol
- Kd (sIGF-1R(1-903)): ≤ 5 nM
- ΔG (sIGF-1R(1-903)): -11.3 kcal/mol
B1: M13-C06 antibody (antibody, V domains shown)
VH: EVQLLESGGGLVQPGGSLRLSCAASGFTFSIYRMQWVRQAPGKGLEWVSGISPSGGTTWYADSVKGRFTISRDNSKNTLYLQMNSLRAEDTAVYYCARWSGGSGYAFDIWGQGTMVTVSS
VL: DIQMTQSPLSLSASVGDRVTITCQASRDIRNYLNWYQQKPGKAPKLLIYDASSLQTGVPSRFGGSGSGTDFSFTIGSLQPEDIATYYCQQFDSLPHTFGQGTKLEIK
notes: Fully human full-length antibody (ATCC PTA-7444); also called M13.C06.G4.P.agly; M13-C06.G4P.agly

- IC50 (read off the curve) (human IGF-1R(1-903)-Fc [6]): ~1 nM
- binding result [7]: no binding (tested: up to 10 nM Fab)
- binding result [8]: no binding (tested: up to 10 nM Fab)
- binding result [9]: no binding (tested: up to 10 nM Fab)
B2: M13-C06 Fab (Fab, V domains shown)
VH: B1 VH
VL: B1 VL
notes: Fab made by enzymatic digestion of the IgG
